Reference: patent US20260209350A1 (Alector, published 2026)
Positions count from the first letter of the chain named.

T1: mouse TREM2 Fc fusion protein (mouse, UniProt Q99NH8 19-171)
T1 construct: also called mTREM2-Fc; not shown: Fc part not specified
T1 sequence (looked up): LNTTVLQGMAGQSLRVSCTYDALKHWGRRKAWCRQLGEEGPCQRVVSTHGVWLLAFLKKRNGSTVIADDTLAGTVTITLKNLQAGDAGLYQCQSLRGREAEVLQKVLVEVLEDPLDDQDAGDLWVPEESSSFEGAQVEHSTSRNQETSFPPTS

T2: human TREM2 Fc fusion protein (human, UniProt Q9NZC2 19-174)
T2 construct: also called hTREM2-Fc; not shown: Fc part not specified
T2 sequence: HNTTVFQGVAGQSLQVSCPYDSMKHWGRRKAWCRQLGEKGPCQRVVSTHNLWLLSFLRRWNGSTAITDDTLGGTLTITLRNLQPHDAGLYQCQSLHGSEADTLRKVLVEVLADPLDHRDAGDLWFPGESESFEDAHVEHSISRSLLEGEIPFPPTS

T3: mouse TREM2 on cells (mouse, UniProt Q99NH8 19-227)
T3 construct: whole, on cells; Used for the recombinant protein on BWZ/BW cells (with mouse DAP12) and for the native protein on mouse macrophages and dendritic cells; the cell type stands under assay; also called mTREM2; mTrem2
T3 sequence (looked up): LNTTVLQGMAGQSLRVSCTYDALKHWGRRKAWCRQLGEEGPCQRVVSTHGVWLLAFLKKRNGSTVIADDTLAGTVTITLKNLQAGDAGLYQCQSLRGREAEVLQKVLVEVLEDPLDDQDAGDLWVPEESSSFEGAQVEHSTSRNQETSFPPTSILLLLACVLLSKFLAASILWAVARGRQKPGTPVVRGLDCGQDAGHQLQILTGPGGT

T4: human monomeric His tagged TREM2 protein (human, UniProt Q9NZC2 19-174)
T4 construct: also called hTREM2-HIS
T4 sequence: T2 sequence

B1: Ab15 (antibody, human IgG1, V domains shown)
VH: QVQLQESGPGLVKPSQTLSLTCTVSGGSISSGGYYWSWIRQHPGKGLEWIGNIYYSGSTVYNPSLKSRVTISVDTSKNQFSLKLSSVTAADTAVYYCARGLYGYGVLDVWGQGTMVTVSS
VL: DIQMTQSPSSLSASVGDRVTITCQASQDISNYLNWYQQKPGKAPKLLIYDASNLETGVPSRFSGSGSGTDFTFTISSLQPEDIATYYCQQFDTYPTFGGGTKVEIK
notes: human IgG1
B2: Ab40 (antibody, human IgG1, V domains shown)
VH: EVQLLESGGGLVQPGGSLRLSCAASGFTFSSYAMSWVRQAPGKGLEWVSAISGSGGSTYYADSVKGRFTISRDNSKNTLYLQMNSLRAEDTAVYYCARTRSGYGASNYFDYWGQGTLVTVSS
VL: DIQMTQSPSSLSASVGDRVTITCRASQSISSYLNWYQQKPGKAPKLLIYAASSLQSGVPSRFSGSGSGTDFTLTISSLQPEDFATYYCQQGYAAPITFGGGTKVEIK
notes: human IgG1
B3: Ab63 (antibody, human IgG1, V domains shown)
VH: QVQLVQSGAEVKKPGASVKVSCKASGYTFTSYGISWVRQAPGQGLEWMGWISTYNGNTNYAQKLQGRVTMTTDTSTSTAYMELRSLRSDDTAVYYCARGSGSGYDSWYDWGQGTLVTVSS
VL: B2 VL with L11V, S28G, S30D, Y32W, N34A, G91A, A93S, A94L, I96P
notes: human IgG1
B4: Ab84 (antibody, human IgG1, V domains shown)
VH: B3 VH
VL: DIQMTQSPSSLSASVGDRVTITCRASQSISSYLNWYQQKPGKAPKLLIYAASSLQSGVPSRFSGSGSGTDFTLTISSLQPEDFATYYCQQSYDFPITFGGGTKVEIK
notes: human IgG1
B5: Ab16 (antibody, human IgG1, V domains shown)
VH: QLQLQESGPGLVKPSETLSLTCTVSGGSISSNSYYWGWIRQPPGKGLEWIGSIYYSGSTYYNPSLKSRVTISVDTSKNQFSLKLSSVTAADTAVYYCARGVLGYGVFDYWGQGTLVTVSS
VL: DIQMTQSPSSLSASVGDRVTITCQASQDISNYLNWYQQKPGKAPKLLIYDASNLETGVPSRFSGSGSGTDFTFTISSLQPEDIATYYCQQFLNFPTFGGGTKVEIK
notes: human IgG1
B6: Ab17 (antibody, human IgG1, V domains shown)
VH: B5 VH
VL: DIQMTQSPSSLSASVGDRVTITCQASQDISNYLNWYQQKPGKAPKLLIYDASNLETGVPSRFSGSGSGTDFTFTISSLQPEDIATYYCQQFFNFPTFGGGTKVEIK
notes: human IgG1
B7: Ab50 (antibody, human IgG1, V domains shown)
VH: QVQLVQSGAEVKKPGASVKVSCKASGYTFTSYYIHWVRQAPGQGLEWMGIINPSGGSTSYAQKFQGRVTMTRDTSTSTVYMELSSLRSEDTAVYYCARAPQESPYVFDIWGQGTMVTVSS
VL: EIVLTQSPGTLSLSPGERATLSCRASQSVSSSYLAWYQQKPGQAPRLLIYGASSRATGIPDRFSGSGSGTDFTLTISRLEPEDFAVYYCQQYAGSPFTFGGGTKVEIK
notes: human IgG1
B8: Ab5 (antibody, human IgG1, V domains shown)
VH: B7 VH
VL: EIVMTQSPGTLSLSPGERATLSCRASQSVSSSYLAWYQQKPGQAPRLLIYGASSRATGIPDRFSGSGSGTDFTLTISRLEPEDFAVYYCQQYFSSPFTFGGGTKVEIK
notes: human IgG1
B9: Ab53 (antibody, human IgG1, V domains shown)
VH: B7 VH
VL: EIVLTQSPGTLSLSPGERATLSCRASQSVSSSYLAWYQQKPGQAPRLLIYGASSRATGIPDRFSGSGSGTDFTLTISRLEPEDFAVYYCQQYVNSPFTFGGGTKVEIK
notes: human IgG1
B10: Ab36 (antibody, human IgG1, V domains shown)
VH: QVQLVESGGGVVQPGRSLRLSCAASGFTFSTYGMHWVRQAPGKGLEWVAVIWYDGSNKYYADSVKGRFTISRDNSKNTLYLQMNSLRAEDTAVYYCARGTGAAAASPAFDIWGQGTMVTVSS
VL: EIVLTQSPATLSLSPGERATLSCRASQSVSSYLAWYQQKPGQAPRLLIYDASNRATGIPARFSGSGSGTDFTLTISSLEPEDFAVYYCQQLFDWPTFGGGTKVEIK
notes: human IgG1
B11: Ab44 (antibody, human IgG1, V domains shown)
VH: B10 VH
VL: B10 VL with L4M, A51S, F92V, D93H
notes: human IgG1
B12: Ab13 (antibody, human IgG1, V domains shown)
VH: QVQLVQSGAEVKKPGASVKVSCKASGYTFTSYGISWVRQAPGQGLEWMGWISAYNGNTNYAQKLQGRVTMTTDTSTSTAYMELRSLRSDDTAVYYCARGPSHYYDLAWGQGTLVTVSS
VL: EIVLTQSPATLSLSPGERATLSCRASQSVSSYLAWYQQKPGQAPRLLIYDASNRATGIPARFSGSGSGTDFTLTISSLEPEDFAVYYCQQVSNYPITFGGGTKVEIK
notes: human IgG1
B13: Ab48 (antibody, human IgG1, V domains shown)
VH: QVQLVQSGAEVKKPGASVKVSCKASGYTFTSYYMHWVRQAPGQGLEWMGIINPSGGSTTYAQKFQGRVTMTRDTSTSTVYMELSSLRSEDTAVYYCARPGKSMDVWGQGTTVTVSS
VL: B12 VL with V91R, S92A, N93A
notes: human IgG1
B14: Ab57 (antibody, human IgG1, V domains shown)
VH: QVQLVQSGAEVKKPGASVKVSCKASGYTFTNYGISWVRQAPGQGLEWMGWISAYNGNTNYAQKLQGRVTMTTDTSTSTAYMELRSLRSDDTAVYYCARGPTKAYYGSGSYVVFDPWGQGTLVTVSS
VL: B12 VL with N53K, N93L, Y94F, I96L
notes: human IgG1
B15: Ab66 (antibody, human IgG1, V domains shown)
VH: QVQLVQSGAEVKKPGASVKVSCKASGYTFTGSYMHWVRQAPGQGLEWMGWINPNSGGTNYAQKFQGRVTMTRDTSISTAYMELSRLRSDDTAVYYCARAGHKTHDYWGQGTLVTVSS
VL: B12 VL with A9G, V91R, N93A
notes: human IgG1
B16: Ab38 (antibody, human IgG1, V domains shown)
VH: QVQLVESGGGVVQPGRSLRLSCAASGFTFSTYGMHWVRQAPGKGLEWVAVIWYDGSNKYYADSVKGRFTISRDNSKNTLYLQMNSLRAEDTAVYYCARGAPVDYGGIEPEYFQHWGQGTLVTVSS
VL: B12 VL with V91I, S92D, N93F, Y94L, I96Y
notes: human IgG1
B17: Ab55 (antibody, human IgG1, V domains shown)
VH: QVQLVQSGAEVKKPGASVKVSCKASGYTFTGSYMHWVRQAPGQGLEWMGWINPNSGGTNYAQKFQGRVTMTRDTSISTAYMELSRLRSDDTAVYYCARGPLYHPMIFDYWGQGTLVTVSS
VL: B12 VL with V91L, N93T, I96L
notes: human IgG1
B18: Ab68 (antibody, human IgG1, V domains shown)
VH: QVQLVESGGGVVQPGRSLRLSCAASGFTFSSYGMHWVRQAPGKGLEWVALIWYDGSNKYYADSVKGRFTISRDNSKNTLYLQMNSLRAEDTAVYYCAKPGSMTDYWGQGTLVTVSS
VL: B12 VL with V91R, S92A
notes: human IgG1
B19: Ab67 (antibody, human IgG1, V domains shown)
VH: B13 VH
VL: B12 VL with V91R, N93H, Y94F
notes: human IgG1
B20: Ab49 (antibody, human IgG1, V domains shown)
VH: B13 VH with T59S, G100A, S102T, M103A, V105Y, T111L
VL: B12 VL with N53K, V91R, S92T, N93S, Y94H
notes: human IgG1
B21: Ab69 (antibody, human IgG1, V domains shown)
VH: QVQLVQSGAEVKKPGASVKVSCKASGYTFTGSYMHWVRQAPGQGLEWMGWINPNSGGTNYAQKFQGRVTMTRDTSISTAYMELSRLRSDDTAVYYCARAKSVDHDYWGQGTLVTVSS
VL: B12 VL with V91R, S92A, N93D
notes: human IgG1
B22: Ab46 (antibody, human IgG1, V domains shown)
VH: B13 VH with T59S, G100A, S102T, M103A, V105Y, T111L
VL: B12 VL with A51S, V91R
notes: human IgG1
B23: Ab47 (antibody, human IgG1, V domains shown)
VH: B13 VH
VL: B12 VL with A9G, V91R, S92I, N93L
notes: human IgG1
B24: Ab58 (antibody, human IgG1, V domains shown)
VH: EVQLVQSGAEVKKPGESLKISCKGSGYSFTSYWIGWVRQMPGKGLEWMGIIYPGDSDTRYSPSFQGQVTISADKSISTAYLQWSSLKASDTAMYYCARLGIYSTGATAFDIWGQGTMVTVSS
VL: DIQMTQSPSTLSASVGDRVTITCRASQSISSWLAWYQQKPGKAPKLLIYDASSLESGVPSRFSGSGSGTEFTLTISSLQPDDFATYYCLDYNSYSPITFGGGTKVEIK
notes: human IgG1

target: T1, mouse TREM2 Fc fusion protein; assay: ForteBio or MSD-SET, avid

Binder	Kd [nM]	binding result
B1	2.8	–
B2	6.03	–
B3	–	no binding
B4	–	no binding
B5	1.36	–
B6	1.67	–
B7	–	no binding
B8	–	no binding
B9	–	no binding
B10	–	no binding
B11	–	no binding
B12	1.71	–
B13	1.41	–
B14	0.598	–
B15	3.88	–
B16	–	no binding
B17	1.17	–
B18	3.26	–
B19	2.92	–
B20	2.08	–
B21	3.4	–
B22	2.46	–
B23	1.45	–
B24	–	no binding

target: T2, human TREM2 Fc fusion protein; assay: ForteBio or MSD-SET, avid

Binder	Kd [nM]
B1	0.605
B2	0.197
B3	1.13
B4	1.16
B5	1.09
B6	0.792
B7	0.729
B8	0.697
B9	0.635
B10	0.465
B11	0.562
B12	1.49
B13	0.35
B14	0.436
B15	1.98
B16	0.96
B17	2.22
B18	6.68
B19	0.66
B20	0.435
B21	3.75
B22	0.445
B23	0.431
B24	0.575

target: T3, mouse TREM2 on cells; assay: FACS, mTrem2 cells

Binder	MFI [MFI]
B1	4760
B2	577
B3	1720
B4	799
B5	6380
B6	10300
B7	325
B8	310
B9	843
B10	1260
B11	1210
B12	3250
B13	9770
B14	10200
B15	4100
B16	297
B17	6220
B18	2100
B19	6210
B20	4320
B21	629
B22	4260
B23	10100
B24	1870

target: T4, human monomeric His tagged TREM2 protein; assay: ForteBio or MSD-SET, monovalent

Binder	Kd [nM]
B1	3.03
B2	7.97
B3	49.6
B4	60.4
B5	2.47
B6	3.46
B7	36.4
B8	30
B9	21.6
B10	4.01
B11	9.46
B12	66.7
B13	9.08
B14	18.3
B15	60.7
B16	13.1
B17	91.7
B18	109
B19	34.5
B20	17.4
B21	59.7
B22	16.8
B23	7.37
B24	2.73
